Substrate in the data set: c1ccc2[nH]ccc2c1
In words: Tryptophan formation from L-serine and indole, kinetics of TmTrpB double mutant. Type of data set: biochemical, Thermotoga maritima. Conditions: other: 75° C., pH 8.0. The procedure: Kinetics and UV-Vis Spectroscopy. Data were collected between 550 and 250 nm on a UV1800 Shimadzu spectrophotometer (Shimadzu) using 0.25-20 μM of enzyme in 200 mM potassium phosphate (pH 8.0) in a quartz cuvette. Samples were incubated at 75° C. for >3 min to ensure a stable temperature was reached. PfTrpB activity (kcat) was measured by monitoring tryptophan formation at 290 nm using Δe290=1.89 mM^−1·cm^−1.
Cloning, expression, and purification of the different orthologs. The genes encoding AfTrpB (UNIPROT ID O28672), TmTrpB (UNIPROT ID P50909) and EcTrpB (UNIPROT ID P0A879) were obtained from IDT and cloned into pET22(b)+ using Gibson Assembly. Protein expression was carried out in E. coli BL21 E. cloni Express cells (Lucigen) by inoculating 10-mL Terrific Broth (with 100 μg/mL ampicillin (TBamp)) with a single colony and incubated over night at 37° C. and 250 rpm. These overnight cultures were used to scale up to 500-mL TBamp expression cultures, which were grown by shaking at 250 rpm and 37° C. for ˜3 h or until an OD600 of 0.8 was reached. Then, after chilling the cultures on ice for 20 min, induction was conducted by the addition of IPTG to a final concentration of 1 mM. Induced cultures were allowed to grow at 250 rpm and 20° C. for another 20 h. After centrifugation, pelleted cells were frozen and stored at −20° C. until further use. […]

The results in this text go back to patent US12534748B2, “Engineered beta-subunit of tryptophan synthase for production of non-canonical amino acids” (California Institute of Technology, priority 2015, dated 2026).

B1: Thermotoga maritima TrpB variant M145T N167D (Table 6 prints N167T), SEQ ID NO: 36 (Thermotoga maritima MSB8; M145T/N167D) (protein)
chain: MKGYFGPYGGQYVPEILMPALEELEAAYEEIMKDESFWKEFNDLLRDYAGRPTPLYFARRLSEKYGARIYLKREDLLHTGAHKINNAIGQVLLAKKMGKTRIIAETGAGQHGVATATAAALFGMECVIYMGEEDTIRQKPNVERTKLLGAKVVPVKSGSRTLKDAIDEALRDWITNLQTTYYVIGSVVGPHPYPIIVRNFQKVIGEETKKQILEKEGRLPDYIVACVGGGSNAAGIFYPFIDSGVKLIGVEAGGEGLETGKHAASLLKGKIGYLHGSKTFVLQDDWGQVQVTHSVSAGLDYSGVGPEHAYWRETGKVLYDAVTDEEALDAFIELSRLEGIIPALESSHALAYLKKINIKGKVVVVNLSGRGDKDLESVLNHPYVRERIRLEHHHHHH
Turning to B1, the Michaelis constant (Km) is 32 µM.

A word on the Km: it is the concentration of substrate that gives half-maximal velocity.
